Test results taken from paper PMC8015787.

Substrate: O=CCO
Assay: O2 consumption
Type: biochemical, Escherichia coli
Settings: thiamin diphosphate (ThDP), Mg2+ active site; donor (and acceptor) substrate

B1: 1-deoxy-D-xylulose 5-phosphate synthase (DXPS) (Escherichia coli K-12) (protein)
chain: SFDIAKYPTLALVDSTQELRLLPKESLPKLCDELRRYLLDSVSRSSGHFASGLGTVELTVALHYVYNTPFDQLIWDVGHQAYPHKILTGRRDKIGTIRQKGGLHPFPWRGESEYDVLSVGHSSTSISAGIGIAVAAEKEGKNRRTVCVIGDGAITAGMAFEAMNHAGDIRPDMLVILNDNEMSISENVGALNNHLAQLLSGKLYSSLREGGKKVFSGVPPIKELLKRTEEHIKGMVVPGTLFEELGFNYIGPVDGHDVLGLITTLKNMRDLKGPQFLHIMTKKGRGYEPAEKDPITFHAVPKFDPSSGCLPKSSGGLPSYSKIFGDWLCETAAKDNKLMAITPAMREGSGMVEFSRKFPDRYFDVAIAEQHAVTFAAGLAIGGYKPIVAIYSTFLQRAYDQVLHDVAIQKLPVLFAIDRAGIVGADGQTHQGAFDLSYLRCIPEMVIMTPSDENECRQMLYTGYHYNDGPSAVRYPRGNAVGVELTPLEKLPIGKGIVKRRGEKLAILNFGTLMPEAAKVAESLNATLVDMRFVKPLDEALILEMAASHEALVTVEENAIMGGAGSGVNEVLMAHRKPVPVLNIGLPDFFIPQGTQEEMRAELGLDAAGMEAKIKAWLA
- Km: 920 ± 120 µM
